Experimental data as given in paper PMC8464063, “The bacterial iron sensor IdeR recognizes its DNA targets by indirect readout”.

What was measured:
[1] = target: Saccharopolyspora erythraea iron-dependent regulator IdeR, wild type (Saccharopolyspora erythraea); assay: crystal structure; Co2+-activated IdeR WT without DNA; 12 mg/ml protein with 1 mM CoCl2 and 0.3 mg/ml trypsin before crystallisation; 25% PEG 1500, 20°C; space group P1, one IdeR dimer in the asymmetric unit
[2] = target: Saccharopolyspora erythraea iron-dependent regulator IdeR, wild type (Saccharopolyspora erythraea); assay: crystal structure; IdeR (WT, Q43A or P39G) with 1 mM CoCl2 or Fe(NH4)2(SO4)2 and 150 uM 30-bp double-stranded DNA (consensus or C10S1); space group C2, two IdeR dimers and one DNA duplex in the asymmetric unit
[3] = target: Saccharopolyspora erythraea IdeR Q43A variant (Saccharopolyspora erythraea); assay: as above
[4] = target: Saccharopolyspora erythraea IdeR P39G variant (Saccharopolyspora erythraea); assay: as above
IdeR WT [5] = target: T1, IdeR WT (Saccharopolyspora erythraea DSM 40517, UniProt A0ABF7PL34 1-231); assay: EMSA; 30 uM Co2+; EMSA: 15 mM Tris-acetate pH 7.3, 4 mM K-acetate, 10% glycerol, 17 ng/ul poly(dI-dC), 30 nM DNA, 30 uM Co2+, IdeR 15 nM-2.25 uM dimer, 20 min room temperature; 4% native gel at 4 C; settings: protein: recombinant, tags: N-terminal His6 removed by TEV, Gly-His remains before Met1, chain copies: 4, blunt
IdeR WT [6] = target: T1, IdeR WT; assay: EMSA; 30 uM Co2+; up to 22.5 uM dimer; EMSA: 15 mM Tris-acetate pH 7.3, 4 mM K-acetate, 10% glycerol, 17 ng/ul poly(dI-dC), 30 nM DNA, 30 uM Co2+, IdeR 15 nM-2.25 uM dimer, 20 min room temperature; 4% native gel at 4 C; settings: protein: recombinant, tags: N-terminal His6 removed by TEV, Gly-His remains before Met1, chain copies: 4, blunt
IdeR P39G [7] = target: T2, IdeR P39G (Saccharopolyspora erythraea DSM 40517, UniProt A0ABF7PL34 1-231, P39G); assay: X-ray crystallography; Co2+; two dimers per duplex; EMSA: 15 mM Tris-acetate pH 7.3, 4 mM K-acetate, 10% glycerol, 17 ng/ul poly(dI-dC), 30 nM DNA, 30 uM Co2+, IdeR 15 nM-2.25 uM dimer, 20 min room temperature; 4% native gel at 4 C; settings: protein: recombinant; tags: N-terminal His6 removed by TEV; Gly-His remains before Met1; chain copies: 4; blunt
IdeR WT [8] = target: T1, IdeR WT; assay: X-ray crystallography; Fe2+; two dimers per duplex; EMSA: 15 mM Tris-acetate pH 7.3, 4 mM K-acetate, 10% glycerol, 17 ng/ul poly(dI-dC), 30 nM DNA, 30 uM Co2+, IdeR 15 nM-2.25 uM dimer, 20 min room temperature; 4% native gel at 4 C; settings: protein: recombinant; tags: N-terminal His6 removed by TEV; Gly-His remains before Met1; chain copies: 4; blunt
IdeR WT [9] = target: T1, IdeR WT; assay: EMSA; 30 uM Co2+; one dimer bound; EMSA: 15 mM Tris-acetate pH 7.3, 4 mM K-acetate, 10% glycerol, 17 ng/ul poly(dI-dC), 30 nM DNA, 30 uM Co2+, IdeR 15 nM-2.25 uM dimer, 20 min room temperature; 4% native gel at 4 C; settings: protein: recombinant; tags: N-terminal His6 removed by TEV; Gly-His remains before Met1; chain copies: 4; label: 5' Cy5 on strand 1; blunt
IdeR Q43A = IdeR Q43A (Saccharopolyspora erythraea DSM 40517, UniProt A0ABF7PL34 1-231, Q43A); assay: EMSA; 30 uM Co2+; EMSA: 15 mM Tris-acetate pH 7.3, 4 mM K-acetate, 10% glycerol, 17 ng/ul poly(dI-dC), 30 nM DNA, 30 uM Co2+, IdeR 15 nM-2.25 uM dimer, 20 min room temperature; 4% native gel at 4 C; settings: protein: recombinant; tags: N-terminal His6 removed by TEV; Gly-His remains before Met1; chain copies: 4; label: 5' Cy5 or 5' FAM on strand 1; blunt
IdeR P39G [10] = target: T2, IdeR P39G; assay: as above; settings: protein: recombinant; tags: N-terminal His6 removed by TEV; Gly-His remains before Met1; chain copies: 4; label: 5' Cy5 or 5' FAM on strand 1; blunt

Molecule “Saccharopolyspora erythraea iron-dependent regulator IdeR, wild type (natural protein)” has a stoichiometry N [1] of 2 and a stoichiometry N [2] of 2.

Molecule “Saccharopolyspora erythraea IdeR Q43A variant (natural protein)” has a stoichiometry N [3] of 2.

For “Saccharopolyspora erythraea IdeR P39G variant (natural protein)”, the stoichiometry N [4] was 2.

B1: C10S1 (dsDNA)
DNA 1: CGTACTTTGGTAAAGCTAACCTAAGTCACC
DNA 2: GGTGACTTAGGTTAGCTTTACCAAAGTACG
In the case of B1, the Kd (IdeR WT [5]; label: 5' FAM on strand 1) is reported as ~116 nM.

B2: C10S2 (dsDNA)
DNA 1: GATGCTTAGGTTAGCCTACCCGACGCTGA
DNA 2: TCAGCGTCGGGTAGGCTAACCTAAGCATC
Work on B2 yielded a Kd (IdeR WT [5]; label: 5' Cy5 on strand 1) of ~94 nM.

B3: Consensus_C1C2-T1T2 (dsDNA)
DNA 1: CGTACTTAAATTAAATTAATTTAAGTACG
DNA 2: CGTACTTAAATTAATTTAATTTAAGTACG
B3: no binding (IdeR WT [6]; label: 5' Cy5 on strand 1).

B4: Consensus_T3-G3 (dsDNA)
DNA 1: CGTACTTCGGTTCGGCGAACCGAAGTACG
DNA 2: CGTACTTCGGTTCGCCGAACCGAAGTACG
B4: no binding (IdeR WT [6]; label: 5' Cy5 on strand 1).

B5: Minimal_CNTNN (dsDNA)
DNA 1: CGTACGCACGCGATGCTCGCATCCGTACG
DNA 2: CGTACGGATGCGAGCATCGCGTGCGTACG
B5: no binding (IdeR WT [6]; label: 5' Cy5 on strand 1).

B6: Minimal_NCTNN (dsDNA)
DNA 1: CGTACGCAGACGAGACTCGTCTGCGCTACG
DNA 2: CGTAGCGCAGACGAGTCTCGTCTGCGTACG
B6: no binding (IdeR WT [6]; label: 5' FAM on strand 1).

B7: Cons_long (crystal) (dsDNA)
DNA 1: CGTACTTAGGTTAGGCTAACCTAAGTCACG
DNA 2: CGTGACTTAGGTTAGCCTAACCTAAGTACG
B7: binds (IdeR P39G [7]); binds (IdeR WT [8]).

B8: Half site (dsDNA)
DNA 1: CGTACCCGGTTTAGGGCCACCTAAGTACG
DNA 2: CGTACTTAGGTGGCCCTAAACCGGGTACG
In the case of B8, the Kd (IdeR WT [9]) is reported as ~78 nM.

B9: C23S1 (dsDNA)
DNA 1: AGTCATAAAGTTAGGTTCGCCTCACTACT
DNA 2: AGTAGTGAGGCGAACCTAACTTTATGACT
Work on B9 yielded a Kd (IdeR WT [9]) of ~102 nM.

B10: Consensus_Full (dsDNA)
DNA 1: CGTACTTAGGTTAGGCTAACCTAAGTACG
DNA 2: CGTACTTAGGTTAGCCTAACCTAAGTACG
Work on B10 yielded a Kd (IdeR Q43A) of ~65 nM, a Kd (IdeR WT [5]; label: 5' Cy5 or 5' FAM on strand 1) of ~45 nM and a Kd (IdeR P39G [10]) of ~264 nM.

B11: Consensus_C1-T1 (dsDNA)
DNA 1: CGTACTTAGATTAGACTAATCTAAGTACG
DNA 2: CGTACTTAGATTAGTCTAATCTAAGTACG
For B11, the Kd (IdeR WT [5]; label: 5' Cy5 on strand 1) was ~70 nM.

B12: Consensus_C2-T2 (dsDNA)
DNA 1: CGTACTTAAGTTAAGTTAACTTAAGTCACG
DNA 2: CGTGACTTAAGTTAACTTAACTTAAGTACG
With B12 the Kd (IdeR WT [5]; label: 5' FAM on strand 1) was ~105 nM.

B13: Consensus_A4A5-S4S5 (dsDNA)
DNA 1: CGTACGCAGGCGAGGCTCGCCTGCGTACG
DNA 2: CGTACGCAGGCGAGCCTCGCCTGCGTACG
In the case of B13, the Kd (IdeR WT [5]; label: 5' Cy5 on strand 1) is reported as ~128 nM.
